Data published in patent US20200079833A1 (AstraZeneca / MedImmune, published 2020).
Starred links: 1 amine or outer side, 2 acyl side, 3 side chain; linkers in the order of their positions; H or OH if unused. Non-standard residues stand in square brackets, D forms with d. Groups on a side chain read outwards from the residue. Primed or numbered codes have the meaning given here. No end group written: not given here. *: point of attachment. γGlu = O=C(O)[C@H](CCC(=O)[*:2])N[*:1]; αMeF = C[C@](N)(Cc1ccccc1)C(=O)O; αMeK = C[C@](N)(CCCCN)C(=O)O; Lauroyl = CCCCCCCCCCCC(=O)*; αMeS = C[C@](N)(CO)C(=O)O; PEG2′ = not defined here; Aib = CC(C)(N)C(=O)O

T1: glucose-dependent insulinotropic peptide (gastric inhibitory polypeptide) receptor (GIPR), primary cAMP assay … (human, UniProt P48546 22-466)
T1 sequence (looked up): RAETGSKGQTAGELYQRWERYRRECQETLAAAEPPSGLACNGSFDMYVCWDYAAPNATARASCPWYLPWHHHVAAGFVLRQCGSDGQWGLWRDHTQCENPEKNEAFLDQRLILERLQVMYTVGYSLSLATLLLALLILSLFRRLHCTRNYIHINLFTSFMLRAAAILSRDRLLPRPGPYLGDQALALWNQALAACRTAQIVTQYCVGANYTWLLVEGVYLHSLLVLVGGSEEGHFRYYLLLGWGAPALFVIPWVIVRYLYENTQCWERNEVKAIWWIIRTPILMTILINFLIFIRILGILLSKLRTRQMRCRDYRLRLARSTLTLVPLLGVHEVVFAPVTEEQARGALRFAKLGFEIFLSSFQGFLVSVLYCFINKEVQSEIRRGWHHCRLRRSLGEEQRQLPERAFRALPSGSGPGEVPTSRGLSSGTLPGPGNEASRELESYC

B1: SEQ ID NO: 463 (peptide)
peptide: H[Aib]EGS[αMeF]TSDV[αMeS]SK([PEG2′-PEG2′-γGlu-Lauroyl])LEK([PEG2′-PEG2′-γGlu-Lauroyl])EAA[αMeK]EFIAK([PEG2′-PEG2′-γGlu-Lauroyl])VVEGG-NH2
B2: SEQ ID NO: 465 (peptide)
peptide: H[Aib]EGS[αMeF]TSDV[αMeS]SK([PEG2′-PEG2′-γGlu-Lauroyl])LEGEK([PEG2′-PEG2′-γGlu-Lauroyl])A[αMeK]EFIAK([PEG2′-PEG2′-γGlu-Lauroyl])VVEGG-NH2
B3: SEQ ID NO: 468 (peptide)
peptide: H[Aib]EGS[αMeF]TSDV[αMeS]SYK([PEG2′-PEG2′-γGlu-Lauroyl])EGK([PEG2′-PEG2′-γGlu-Lauroyl])AA[αMeK]EFIAK([PEG2′-PEG2′-γGlu-Lauroyl])VVEGG-NH2
B4: SEQ ID NO: 471 (peptide)
peptide: H[Aib]EGS[αMeF]TSDK([PEG2′-PEG2′-γGlu-Lauroyl])SSYLEK([PEG2′-PEG2′-γGlu-Lauroyl])EAA[αMeK]EFIAFK([PEG2′-PEG2′-γGlu-Lauroyl])VEGG-NH2
B5: SEQ ID NO: 472 (peptide)
peptide: H[Aib]EGS[αMeF]TSDK([PEG2′-PEG2′-γGlu-Lauroyl])SSYLEGK([PEG2′-PEG2′-γGlu-Lauroyl])AA[αMeK]EFIAFK([PEG2′-PEG2′-γGlu-Lauroyl])VEGG-NH2
B6: SEQ ID NO: 473 (peptide)
peptide: H[Aib]EGS[αMeF]TSDK([PEG2′-PEG2′-γGlu-Lauroyl])SSYLEGEK([PEG2′-PEG2′-γGlu-Lauroyl])A[αMeK]EFIAFK([PEG2′-PEG2′-γGlu-Lauroyl])VEGG-NH2
B7: SEQ ID NO: 474 (peptide)
peptide: H[Aib]EGS[αMeF]TSDK([PEG2′-PEG2′-γGlu-Lauroyl])SSYLEGEAA[αMeK]K([PEG2′-PEG2′-γGlu-Lauroyl])FIAFK([PEG2′-PEG2′-γGlu-Lauroyl])VEGG-NH2
B8: SEQ ID NO: 475 (peptide)
peptide: H[Aib]EGS[αMeF]TSDVSK([PEG2′-PEG2′-γGlu-Lauroyl])YLEK([PEG2′-PEG2′-γGlu-Lauroyl])EAA[αMeK]EFIAFK([PEG2′-PEG2′-γGlu-Lauroyl])VEGG-NH2
B9: SEQ ID NO: 476 (peptide)
peptide: H[Aib]EGS[αMeF]TSDVSK([PEG2′-PEG2′-γGlu-Lauroyl])YLEGK([PEG2′-PEG2′-γGlu-Lauroyl])AA[αMeK]EFIAFK([PEG2′-PEG2′-γGlu-Lauroyl])VEGG-NH2
B10: SEQ ID NO: 477 (peptide)
peptide: H[Aib]EGS[αMeF]TSDVSK([PEG2′-PEG2′-γGlu-Lauroyl])YLEGEK([PEG2′-PEG2′-γGlu-Lauroyl])A[αMeK]EFIAFK([PEG2′-PEG2′-γGlu-Lauroyl])VEGG-NH2
B11: SEQ ID NO: 478 (peptide)
peptide: H[Aib]EGS[αMeF]TSDVSK([PEG2′-PEG2′-γGlu-Lauroyl])YLEGEAA[αMeK]K([PEG2′-PEG2′-γGlu-Lauroyl])FIAFK([PEG2′-PEG2′-γGlu-Lauroyl])VEGG-NH2
B12: SEQ ID NO: 479 (peptide)
peptide: H[Aib]EGS[αMeF]TSDV[αMeS]SK([PEG2′-PEG2′-γGlu-Lauroyl])LEK([PEG2′-PEG2′-γGlu-Lauroyl])EAA[αMeK]EFIAFK([PEG2′-PEG2′-γGlu-Lauroyl])VEGG-NH2
B13: SEQ ID NO: 481 (peptide)
peptide: H[Aib]EGS[αMeF]TSDV[αMeS]SK([PEG2′-PEG2′-γGlu-Lauroyl])LEGEK([PEG2′-PEG2′-γGlu-Lauroyl])A[αMeK]EFIAFK([PEG2′-PEG2′-γGlu-Lauroyl])VEGG-NH2
B14: SEQ ID NO: 483 (peptide)
peptide: H[Aib]EGS[αMeF]TSDV[αMeS]SYK([PEG2′-PEG2′-γGlu-Lauroyl])EK([PEG2′-PEG2′-γGlu-Lauroyl])EAA[αMeK]EFIAFK([PEG2′-PEG2′-γGlu-Lauroyl])VEGG-NH2
B15: SEQ ID NO: 484 (peptide)
peptide: H[Aib]EGS[αMeF]TSDV[αMeS]SYK([PEG2′-PEG2′-γGlu-Lauroyl])EGK([PEG2′-PEG2′-γGlu-Lauroyl])AA[αMeK]EFIAFK([PEG2′-PEG2′-γGlu-Lauroyl])VEGG-NH2
B16: SEQ ID NO: 485 (peptide)
peptide: H[Aib]EGS[αMeF]TSDV[αMeS]SYK([PEG2′-PEG2′-γGlu-Lauroyl])EGEK([PEG2′-PEG2′-γGlu-Lauroyl])A[αMeK]EFIAFK([PEG2′-PEG2′-γGlu-Lauroyl])VEGG-NH2
B17: SEQ ID NO: 486 (peptide)
peptide: H[Aib]EGS[αMeF]TSDV[αMeS]SYK([PEG2′-PEG2′-γGlu-Lauroyl])EGEAA[αMeK]K([PEG2′-PEG2′-γGlu-Lauroyl])FIAFK([PEG2′-PEG2′-γGlu-Lauroyl])VEGG-NH2

Molecular target: T1, glucose-dependent insulinotropic …
Assay: cell-based or functional assay

Row | cAMP Primary assay EC50, n1 [nM] | cAMP Primary assay EC50, n2 [nM] | Binder
1 | 20 | 20 | B1
2 | 20 | 20 | B2
3 | 20 | 20 | B3
4 | 19.6 | 19.6 | B4
5 | 19.9 | 19.9 | B5
6 | 19.6 | 19.6 | B6
7 | 19.9 | 19.9 | B7
8 | 19.5 | 19.5 | B8
9 | 19.8 | 19.8 | B9
10 | 19.6 | 19.6 | B10
11 | 19.8 | 19.8 | B11
12 | 19.8 | 19.8 | B12
13 | 19.8 | 19.8 | B13
14 | 19.6 | 19.6 | B14
15 | 19.9 | 19.9 | B15
16 | 19.6 | 19.6 | B16
17 | 19.9 | 19.9 | B17

Molecular target: glucagon receptor (GCGR), primary cAMP assay cell line (human, UniProt P47871 26-477)
Assay: cell-based or functional assay

glucagon receptor (GCGR), primary cAMP assay cell line, sequence (P47871 26-477): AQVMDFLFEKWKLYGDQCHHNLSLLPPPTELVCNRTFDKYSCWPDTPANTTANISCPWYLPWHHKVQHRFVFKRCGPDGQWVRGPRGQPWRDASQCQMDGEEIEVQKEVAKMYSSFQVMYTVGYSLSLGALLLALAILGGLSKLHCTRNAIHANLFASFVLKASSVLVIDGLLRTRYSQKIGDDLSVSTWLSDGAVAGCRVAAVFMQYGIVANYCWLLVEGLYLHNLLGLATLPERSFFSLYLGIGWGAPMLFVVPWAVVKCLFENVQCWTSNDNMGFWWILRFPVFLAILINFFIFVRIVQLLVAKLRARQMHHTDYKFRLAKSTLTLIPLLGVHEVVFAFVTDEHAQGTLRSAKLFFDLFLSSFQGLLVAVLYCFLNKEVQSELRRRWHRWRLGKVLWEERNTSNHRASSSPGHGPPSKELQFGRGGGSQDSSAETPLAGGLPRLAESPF

Row | cAMP Primary assay EC50, n1 [nM] | cAMP Primary assay EC50, n2 [nM] | Binder
18 | 20 | 20 | B1
19 | 20 | 20 | B2
20 | 20 | 20 | B3
21 | 19.6 | 19.6 | B4
22 | 19.9 | 19.9 | B5
23 | 19.6 | 19.6 | B6
24 | 19.9 | 19.9 | B7
25 | 19.5 | 19.5 | B8
26 | 19.8 | 19.8 | B9
27 | 19.6 | 19.6 | B10
28 | 19.8 | 19.8 | B11
29 | 19.8 | 19.8 | B12
30 | 19.8 | 19.8 | B13
31 | 19.6 | 19.6 | B14
32 | 19.9 | 19.9 | B15
33 | 19.6 | 19.6 | B16
34 | 19.9 | 19.9 | B17

Molecular target: GLP-1 receptor (GLP-1R), primary cAMP assay cell line (human, UniProt P43220 24-463)
Assay: cell-based or functional assay

Row | cAMP Primary assay EC50, Mean pM GLP-1R [pM] | cAMP Primary assay EC50, n1 [nM] | cAMP Primary assay EC50, n2 [nM] | Binder
35 | 82 | 0.0695 | 0.0944 | B1
36 | 117 | 0.101 | 0.133 | B2
37 | 73.5 | 0.0624 | 0.0845 | B3
38 | 374 | 0.277 | 0.47 | B4
39 | 287 | 0.297 | 0.277 | B5
40 | 434 | 0.399 | 0.47 | B6
41 | 290 | 0.279 | 0.3 | B7
42 | 288 | 0.228 | 0.347 | B8
43 | 216 | 0.174 | 0.257 | B9
44 | 264 | 0.226 | 0.302 | B10
45 | 118 | 0.103 | 0.134 | B11
46 | 186 | 0.132 | 0.239 | B12
47 | 143 | 0.137 | 0.149 | B13
48 | 244 | 0.229 | 0.258 | B14
49 | 166 | 0.163 | 0.168 | B15
50 | 196 | 0.167 | 0.224 | B16
51 | 212 | 0.165 | 0.259 | B17
